From patent US20240035010, “COMPOSITIONS COMPRISING A VARIANT POLYPEPTIDE AND USES THEREOF” (Arbor Biotechnologies, Inc., published 2024) come the findings set out here.

The target of data set [1] is T1, variant nuclease T338G combination (P14R, D32R, I61R, E311R, T338G).
T1 chain: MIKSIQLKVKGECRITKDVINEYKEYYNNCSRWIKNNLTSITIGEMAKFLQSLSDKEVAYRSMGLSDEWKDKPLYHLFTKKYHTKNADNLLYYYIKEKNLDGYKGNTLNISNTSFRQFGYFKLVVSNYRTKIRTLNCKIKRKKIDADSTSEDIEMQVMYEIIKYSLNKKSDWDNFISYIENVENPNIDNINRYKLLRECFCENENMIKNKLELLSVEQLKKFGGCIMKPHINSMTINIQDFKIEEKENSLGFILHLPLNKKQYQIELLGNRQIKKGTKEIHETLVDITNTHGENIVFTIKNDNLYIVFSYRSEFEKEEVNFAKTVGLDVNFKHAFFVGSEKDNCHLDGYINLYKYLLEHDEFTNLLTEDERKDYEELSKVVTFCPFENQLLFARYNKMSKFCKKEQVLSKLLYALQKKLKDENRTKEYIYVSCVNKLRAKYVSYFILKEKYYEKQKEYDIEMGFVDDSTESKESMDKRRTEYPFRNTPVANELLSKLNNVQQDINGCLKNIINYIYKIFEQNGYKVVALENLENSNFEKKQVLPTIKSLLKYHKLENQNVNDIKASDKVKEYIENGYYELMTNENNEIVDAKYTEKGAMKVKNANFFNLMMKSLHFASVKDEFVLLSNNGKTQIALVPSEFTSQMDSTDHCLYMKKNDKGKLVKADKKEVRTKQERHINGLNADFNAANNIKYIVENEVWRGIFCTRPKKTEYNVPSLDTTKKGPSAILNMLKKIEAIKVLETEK
Kind of data set: cell_activity; PAM 5'-TTTG-3'. The conditions noted are these: tags: pcDNA3.1 expression. How it is done: (§1) Approximately 16 hours prior to transfection, 25,000 HEK293T cells in DMEM/10% FBS+Pen/Strep (D10 media) were plated into each well of a 96-well plate. On the day of transfection, the cells were 70-90% confluent. For each well to be transfected, a mixture of Lipofectamine 2000™ and Opti-MEM™ was prepared and incubated at room temperature for 5 minutes (Solution 1). After incubation, the Lipofectamine 2000™:Opti-MEM™ mixture was added to a separate mixture containing nuclease plasmid, RNA guide plasmid, and Opti-MEM™ (Solution 2). In the case of negative controls, the RNA guide plasmid was not included in Solution 2. Solutions 1 and 2 were mixed by pipetting up and down, then incubated at room temperature for 25 minutes. Following incubation, the Solution 1 and 2 mixture was added dropwise to each well of a 96-well plate containing the cells. Approximately 72 hours post transfection, cells were trypsinized by adding TrypLE™ to the center of each well and incubating at 37° C. for approximately 5 minutes. D10 media was then added to each well and mixed to resuspend cells. The resuspended cells were centrifuged at 500 g for 10 minutes to obtain a pellet, and the supernatant was discarded. The cell pellet was then resuspended in QuickExtract™ buffer (Lucigen®), and cells were incubated at 65° C. for 15 minutes, 68° C. for 15 minutes, and 98° C. for 10 minutes.
(§2) This Example describes assessment of indel activity at multiple target sites using the wild-type polypeptide of SEQ ID NO: 3 or variant polypeptides of Table 4. The variant polypeptides were cloned into a pcDNA3.1 backbone (Invitrogen), and the cells were transfected as described in Example 7.
(§3) The percentage of NGS reads containing indels (% indels) were calculated. For each variant polypeptide and target, % indels were averaged across two bioreplicates and two technical replicates. These values were then compared to % indels of the wild-type polypeptide of SEQ ID NO: 3.

Data set [2] addresses T2, variant nuclease D55G/E736G combination (P14R, D32R, I61R, E311R, D55G, E736G).
T2 chain: T1 chain with D55G, G338T, E736G
Kind of data set: cell_activity; PAM 5'-TTTG-3'. As to conditions: tags: pcDNA3.1 expression. The protocol: as §1, §2, §3

Where a chain is given by its changes, count along the chain named.

B1: AAVS1 crRNA ; AAVS1 target (ssRNA ; dsDNA)
RNA: CUUGUUGUAUAUGUCCUUUUAUAGGUAUUAAACAACUGAGAAUGGUGCGUCCUAGG
DNA 1: TGAGAATGGTGCGTCCTAGG
DNA 2: CCTAGGACGCACCATTCTCA
With B1, the indel activity in data set [1] was 5.93 fold of WT; in data set [2] it was 5.76 fold of WT.
